# Source: the DeepSol protein solubility set
# Assay: soluble on expression in E. coli; label from the status in PepcDB or PDB records
row,Sequence,soluble on expression in E. coli
1,MAKIGLFFGSDTGTTRKIAKQIKDMFDDEVMAKPLNVNRADVADFMAYDFLILGTPTLGDGQLPGLSANAASESWEEFLPRIADQDFSGKTIALFGLGDQVTYPLEFVNALFFLHEFFSDRGANVVGRWPAKGYGFEDSLAVVEGEFLGLALDQDNQAALTPERLKGWLSLIAADFGLVLPA,soluble
2,AHHHHHHGSTLRLLNDFVKDKLFGETVLVENNSYLGVETLLFVIFKLGEELNVPILVEDVLDTFSIYKKHLEMLGLKTPENIKILKIGGSEEGKGVVKRIPFDFDISRYLLEYGKSFEDVSPKEKFIDLVFGLDRFFILIDNLIDTAKLLNSIKNYIHNENRTAFYFIEANLLKATKPIILYYLEDIATSVVRINQEKNILTFEPVKDIWSVRNKINQISISFGDLFRETL,not soluble
3,DLTIDNGPEKGDLLVLGWGSTYGAIKKAVEQAREGGLDVAHAHLRYINPFPKNLGAMLGNFKKVLIPENNCGQLLSLIRDKFLIEPVGFSKVQGLPFNEMEIEEKITDILKEL,not soluble
4,NNDSWKPWSLPLSGKIIYLDPGHGGPDGGAVGGKLLEKDVTLEVAFRVRDYLQEQGALVIMTRESDTDLAPEGTKGYSRRKAEDLRQRVKLINHSEAELYISIHLNAIPSQKWSGAQSFYYGKYAENEKVAKYIQDELRRNLENTTRKAKRIHGIYLMQNVTKPGALIEVGFLSNPSEATLLGKPKYQDKVASSIYKGILRYFTEKGDPPE,not soluble
5,CATGTRQSPINIQWKDSVYDPQLAPLRVSYDAASCRYLWNTGYAFQVEFDDSCEDSGISGGPLGNHYRLKQFHFHWGATDEWGSEHAVDGHTYPAELHLVHWNSTKYENCKKASVGENGLAVIGVFLKLGAHHQALQKLVDVLPEVRHKDTQVAMGPFDPSCLMPACRDYWTYPGSLTTPPLAESVTWIVQKTPVEVSPSQLSMFRTLLFSGRGEEEDVMVNNYRPLQPLRDRKLRSSFRLDRTKMRS,soluble
6,MSLTFYWYPKCGTCRKAKKWLEEHGKEINEIHIAEQPPSKEELKALYEKSGLDLKKFFNTSGMKYRELNLKEKLYHMSEDEQLELLASDGMLIKRPLTTDGEKVTVGFKEDQFEENWA,not soluble
7,MITMPKLFIYHANQCNPKKCTSLKMAKMNKAILLKNPYKVPKNSLILNPYAEKALSPEDKEIVEKFGITALDCSWKEAELMFKKFKFKNQRSLPFLVACNPINYGKPCMLSTLEAFIAALYITNFKDEAWDLTSCFKWAETFIKVNYELLERYSNAKNSMEVVEIQQDFLRKLEHHHHHH,soluble
8,SDLFTDGDIFQDIVDAACKRRVPVYIILDEGGVKYFLEMCQGLELADFRIRNIRVRSVTGIGFYMPMGKIKGTLSSKFLMVDGDKVATGSFSFTWSSSYVDRNLLLLLTGQNMEPFDIEFRELYAISEEVNLHQHLGLAGRIGLNYSSTVARKLINPKYALVAGTRRPPGEMMRWAARQQREAGGNVEGQEEGSGGGESARRLESFLNDLVTVEQILPTVEPISPRLQRPTNGRPVSHAHTDAKHRSREALPQNGKGEAANGEATPAKEGKRFSSRLFSRRVKRPAVPSSMASSPSTETFADVEFPLGKRHNEGSNANISGKGITKASNCVIS,soluble
9,MFIESRELVMKHRIPVAKTERYWKGLEEGKVFKTVCKSCGKEHHPPRAECLCGGEVEWVEITGEGVVEAFTTVHTIPAGFEWHREPYTIAIARFGEVRVMGWAKEVRVGDVVRLKPGKDETGVWKVYFEVV,not soluble
10,MYCTIDDLLGQIDKSKLIELTNDRADPAVDENGQEIIHEGNANSAIEAATAVVNTYIAMRYPVPLSPVPKIVSKLTADIAIYNLFTRHYNDEDNVFVRRYRDAIRLLEKIAADEVKLTANESGIRTYARRKVFGEDFRRMYD,not soluble
11,MALPKLTDEQRKEALAKAAEARKARAELKEQLKRSDITLKEVLDKASSDEIIGKTKVSALLESLPKVGKVKAKEIMEELEIAQTRRLRGLGDRQRRALLERFGYSED,not soluble
12,SLDICSKNPCHNGGLCEEISQEVRGDVFPSYTCTCLKGYAGNHCETKCVEPLGMENGNIANSQIAASSVRVTFLGLQHWVPELARLNRAGMVNAWTPSSNDDNPWIQVNLLRRMWVTGVVTQGASRLASHEYLKAFKVAYSLNGHEFDFIHDVNKKHKEFVGNWNKNAVHVNLFETPVEAQYVRLYPTSCHTACTLRFELLGCELNGCANPLGLKNNSIPDKQITASSSYKTWGLHLFSWNPSYARLDKQGNFNAWVAGSYGNDQWLQVDLGSSKEVTGIITQGARNFGSVQFVASYKVAYSNDSANWTEYQDPRTGSSKIFPGNWDNHSHKKNLFETPILARYVRILPVAWHNRIALRLELLGC,soluble
13,MKELHTSELVEVSGGKFHIFAQGGGNLGKKDMVAVGKIGASYSPNNSGVEFSVSKQFGYVQGLGVQFSKPTFGISKKW,not soluble
14,MTEPFIVRRETQIAAPRATVFAYLTDPEKILSWMGSDATTEPHPGGLYLLKGIGPRGAAARGAFREVVPVHRLAYTFGWEGGQEVPPGSSLIEIDLIERDGGTLLRMTHSGLPTEEQAAAHAKGWAHYLERLTTAAAGNDPGPDNGVSTKSLEHHHHHH,soluble
15,MRTLGLDLGTKTLGVAVSDELGLTAQGLETIAIDTERGDYGLKRLRAIIDEYGVDTIVVGWPKNMNGTLGPRAEASERFAAKLREEFSLPVVLRDERLSTMAAERMLIAADVSRKKRRKVIDKMAAAVILQSYLDSKR,not soluble
16,MVWSSETFGMTPEEQIEWMALDDQEKKKLERKRARNRQAATKCRQKKMDRIKELEEQVLHEKHRGQRLDAELLELNRALEHFRRTVEHHSGNGCPNNSIRV,not soluble
17,MKPVPTYVQDKDESTLMFSVCSLVRDQAKYDRLLESFERFGFTPDKAEFLAADNREGNQFHGFSWHKQMLPRCKGRYVIFCHEDVELVDRGYDDLVAAIEALEEADPKWLVAGVAGSPWRPLNHSVTAQALHISDVFGNDRRRGNVPCRVESLDECFLLMRRLKPVLNSYDMQGFHYYGADLCLQAEFLGGRAYAIDFHLHHYGRAIADENFHRLRQEMAQKYRRWFPGRILHCVTGRVALGGGWYEAR,soluble
18,MGSDKIHHHHHHMIKRRYMRTRQLKPGMIIDQVIKDPTGRNLVVQGSAIDDYIISSLLKLGIMSVYIREGNADPDDPDAILSPKAAAMVKQLRTDDRSKVTLSDSVRQRVSTGVQYIFNNTNSEELTQATNQIADSLMEAINENDAIAVDISSLKTSDEYTFKHSVDVATISMILAKQMKLPDNEIHDIGVSGLLHDIGKTMIPNEILNKPGRLTDDEFNIMKKHSVYGYNMLKDRKDLNNSILMGVLQHHERIDGTGYPLGFDAPKICQFAKILSVADVYDALVTKRPYKDALSQRDAVEMLMSMTNQLDIGVMRAFMSSMILYPVDSIVQLSNGEKARVVKNSEYYILRPTVVGVDSGRVYNLGNDLKCASIIIL,not soluble
19,TINPVMQQVAYDQLTAKGYTGSVVAIEPSTGRILTMVSTPSYDPNSLASHDGTETTQAWEALNADPEKPLINRAVSQTYPPGSTFKVVVTAAALAAGTTPDTQLTAAPQITLPGTSTTLENYNGSTCGGAPTASLREAFARSCNTAFVELGVKTGTDAVSDQSSALGIGGQMPGVPFPVADSTIGSIPDDAALGQSSIGQRDVALTPLQNAMIAATVANGGVRMQPQLVSELQGPDLSNLATTNPVSEGQAMSSQVAATLTDLMIGSENNTSGEGKIPGVQIASKTGTAEHGTDPRNTPPHAWYIGFAPAQNPTVAIAVIVEDGGDRALAATGGSVAAPIGRAVIAAGLQGG,not soluble
20,MKAYDIEIVNDAAHAGEANHGWCFGLPPGIRPEQWPLDPDTGYPLMHGFTLLLPEDYRVHGPEIVALSFFSLAPDQNDGGPTSVDGIREMLIDPPAQPPAEAELRPFWEAGRNSHPRLHRMEDILGGAYALILLDAAEFSGAPCQPRALPAGNPLLAQTEPPQWLEAGSAASFVPDWAEDDYYLLRALGGRPAAGHQQRYPLRWTARAQDPNAGVVPSEYGDGGYQLPHYWLDGKIERDNYREHPWVEGHLPNHIGGTMRPVQGVPEMSPFYVEFEEYLGGYNFGGGNAQLDFRDMRFDWACG,not soluble
21,MSLNDGRLEIFQEGKPGRRIDEDQVFAAVLDALTKPAEQRTVTVAFREIPPPITAANLDQLGITTLIGVGRSDFTGSAAYRVTNIQAGMRLLHGVLIAPGEEFSFNQTIGRIDRSNGFVEGYAIIQNRTQLEWGGGICQDSTTMFRAAFWAGLPITERWGHSFYISWYDRYAFGPYGDGPGMDATIFTGGPDLKFLNDTGGWLLIQTLVDTHRHLAEVRLYGPDTGRKVLLEGPIITNRTEGHHHHHH,not soluble
22,AHHHHHHGSVEVKKHKFPGVYVVIDDDGSEKIATKNLVPGQRVYGERVIKWEGEEYRIWNPHRSKLGAAIVNGLKNFPIKPGKSVLYLGIASGTTASHVSDIVGWEGKIYGIEFSPRVLRELVPIVEERRNIIPILGDATKPEEYRALVTKVDVIFEDVAQPTQAKILIDNAKAYLKRGGYGMIAVKSRSIDVTKEPEQVFKEVERELSEYFEVIERLNLEPYEKDHALFVVRKP,soluble
23,MNVEKLKKMKGKEKIVMVTAYDAPSARIARDAGIDVILVGDSLGNNVLGYENTIPVTMEEMLIHVAAVKRGAPDAFIVADMPFLSYQTSVEKAVENAGKFLKVGANAVKIEGGEEFGELVQKLVESGIPVMGHIGLTPQFVNRFGGYRVQGKTEKNREYLLRSARELEKRGAFAIVLELVVEEVAKEITESVSIPTIGIGSGRFCDGQVLVWHDLLGLNPDFAPRFSKKYANLYEVILKALQEFRREVKKGLFPTEEHSFTDKSKGGVSS,soluble
24,MSCNSFFVFCANSKKEKKDKILEITPQGTTPLPCSRQSRMRDENGSTRTRGGSRGIKSSKEPDSTDDAFKEMAKRLAKKDKPEKTLDFI,soluble
25,GKKLEPIEELTIDVPEEFMGVVMEKLGPRKAELVNMTSAVNGYTRLEFKIPSRGLIGFRNEFMTDTKGNGIMNSTLIDYEPFRGDIPERSRGSIVVFETGVSVVYGLYSAQERGRLFVGAGVDVYEGMV,not soluble
26,MSLKRAEPQSLQVSQNELQAMAYSDPLTGLGNRYRLRDKIRMLASERSSDPAPFTVGIANIDGFKPINDLFGVQAGDEILCQVAHRLKACIPDGAIVTRHDGDEFAFVLPLIFERIGAERIGNMIKDVLSAPYDLGDRNVRLSSSFGFAIYPFAGDEYEDLLKSAETALYRSKRRGRGQITVYSREIAQEMKRATQLEQALRNAIITDAIDVHFQPIVRLEEAKVIGFEALARWNDPDLGFVSPAVFVPLAEERGFIDALSEALLRKAAEAALFWPRELFLSFNLSSAQLMDPSTSDNILSILSRVGLDPHRLELEITETAVMTSADTAQRIISELQSAGVRISLDDFGTGQSSLGRLRDFTFDKVKIDRAFVSRISSDRPSEHIIKAIVAMCEGLDLEVVAEGIEERVEEEKLRALGCAMGQGYFYGRPVDAAATQRYLHENYREILSDISEGHHHHHH,soluble
27,GPGPSRPSASWQNSVSERPPYSYMAMIQFAINSTERKRMTLKDIYTWIEDHFPYFKHIAKPGWKNSIRHNLSLHDMFVRETSANGKVSFWTIHPSANRYLTLDQVFKPLDPGSPQLPEHLESQQKRPNPELRRNMTIKTELP,soluble
